Experimental data as given in US20190119403A1 (published 2019).

Molecular target: human cathepsin B (Recombinant Human Procathepsin B, Novoprotein, converted into active form) (human, UniProt P07858 80-333)
Assay: enzyme inhibition

B1: Stefin A-derived antibody Fab (Fab, V domains shown)
VH: not shown
VL: DIQMTQSPSSLSASVGDRVTITCRASQDVNVVAGTTAVAWYQQKPGKAPKLLIYGGSKSLPGQNEDLSGGFLYSGVPSRFSGSRSGTDFTLTISSLQPEDFATYYCQQHLGGPITTPPTFGQGTKLEIKR
Ki: 225 nM
